Test results: paper PMC9335243

Target: T. laurifolia Δ6-18:0-ACP desaturase, N-11 truncation (Thunbergia laurifolia)
Assay: crystal structure

stoichiometry N: 2
Substance: T. laurifolia Δ6-18:0-ACP desaturase, N-11 truncation (enzyme)
